Laboratory results: PMC10415143

How the values were obtained:
[1] = target: ALPH1ΔN (amino acids 222-734), recombinant (T. brucei); test: SEC-MALS; 100 µl injected at 5 mg/ml on Superdex 200 Increase 10/300 GL, 15°C, 0.4 ml/min, PBS buffer
[2] = target: Full length ALPH1 (amino acid 1-734), recombinant (T. brucei); test: as above

| Substance | stoichiometry N [1] | stoichiometry N [2] |
| --- | --- | --- |
| ALPH1ΔN (amino acids 222-734), recombinant (domain or fragment) | 2 | – |
| Full length ALPH1 (amino acid 1-734), recombinant (enzyme) | – | 2 |
